Molecular target: Purified human ACSS2 (bacterially expressed) (human, UniProt Q9NR19 1-701)
Assay: pull-down

Sequence of Purified human ACSS2 (bacterially expressed) (Q9NR19 whole entry): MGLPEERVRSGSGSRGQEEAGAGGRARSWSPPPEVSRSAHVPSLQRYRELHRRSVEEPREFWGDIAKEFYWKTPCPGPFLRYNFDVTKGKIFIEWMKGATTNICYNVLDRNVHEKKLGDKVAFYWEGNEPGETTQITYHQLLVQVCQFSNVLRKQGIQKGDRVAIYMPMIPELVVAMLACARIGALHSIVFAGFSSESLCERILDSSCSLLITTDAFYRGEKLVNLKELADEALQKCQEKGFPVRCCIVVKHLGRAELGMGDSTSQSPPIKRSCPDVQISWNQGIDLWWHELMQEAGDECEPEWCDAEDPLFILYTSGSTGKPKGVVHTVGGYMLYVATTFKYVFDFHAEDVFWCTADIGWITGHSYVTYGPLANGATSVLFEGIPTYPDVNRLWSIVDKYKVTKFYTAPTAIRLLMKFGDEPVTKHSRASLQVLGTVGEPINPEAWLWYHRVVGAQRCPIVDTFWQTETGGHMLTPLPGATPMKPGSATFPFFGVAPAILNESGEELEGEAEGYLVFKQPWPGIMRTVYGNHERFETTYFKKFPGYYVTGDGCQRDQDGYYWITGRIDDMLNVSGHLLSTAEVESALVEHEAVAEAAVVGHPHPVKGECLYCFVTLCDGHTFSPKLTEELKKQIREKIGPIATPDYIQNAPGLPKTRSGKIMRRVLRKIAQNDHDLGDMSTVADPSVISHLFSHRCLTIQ

B1: Purified human PAICS (bacterially expressed) (natural protein, UniProt P22234 1-425, looked up)
chain: MATAEVLNIGKKLYEGKTKEVYELLDSPGKVLLQSKDQITAGNAARKNHLEGKAAISNKITSCIFQLLQEAGIKTAFTRKCGETAFIAPQCEMIPIEWVCRRIATGSFLKRNPGVKEGYKFYPPKVELFFKDDANNDPQWSEEQLIAAKFCFAGLLIGQTEVDIMSHATQAIFEILEKSWLPQNCTLVDMKIEFGVDVTTKEIVLADVIDNDSWRLWPSGDRSQQKDKQSYRDLKEVTPEGLQMVKKNFEWVAERVELLLKSESQCRVVVLMGSTSDLGHCEKIKKACGNFGIPCELRVTSAHKGPDETLRIKAEYEGDGIPTVFVAVAGRSNGLGPVMSGNTAYPVISCPPLTPDWGVQDVWSSLRLPSGLGCSTVLSPEGSAQFAAQIFGLSNHLVWSKLRASILNTWISLKQADKKIRECNL
Question: Does B1 bind?
Answer: binds
